As usually defined, the Kd is the concentration at which binding is half-saturated. In general, koff refers to the rate constant with which the complex falls apart. The kon is the second-order rate constant of association.

For assay [1], the target named is Macaca fascicularis (crab-eating macaque) SIGLEC15 on CHO-S-fasSIGLEC15 cells (Macaca fascicularis (crab-eating macaque)). Briefly: flow cytometry, CHO-S cells expressing the target.
The target in assay [2] is T1, His-tagged monkey SIGLEC15 protein (fasSIGLEC15-His, ACROBiosystems Inc., Cat #: SG5-C52H6) (monkey).
T1 sequence: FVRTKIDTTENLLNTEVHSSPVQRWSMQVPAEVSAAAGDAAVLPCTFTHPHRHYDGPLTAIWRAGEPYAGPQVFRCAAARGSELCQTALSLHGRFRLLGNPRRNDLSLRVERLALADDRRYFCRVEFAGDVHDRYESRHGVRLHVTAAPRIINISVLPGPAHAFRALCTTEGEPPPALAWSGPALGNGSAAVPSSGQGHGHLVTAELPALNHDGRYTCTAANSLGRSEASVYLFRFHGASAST
Nature of the assay: SPR (Biacore 8K), antibody captured on Protein A chip, His-tagged SIGLEC15 as analyte. A general note: In SPR one partner is held on a chip, and binding of the other changes the refractive index at the surface.

B1: anti-SIGLEC15 antibody 10A7 (antibody, human IgG1, V domains shown)
VH: EVQLVQSGGGLVQPGGSLRLSCAASGFTFSNYEMNWVRQAPGKGLEWISYISNSGSTIYYADSVKGRFTISRDDAKNSLYLQMNSLRAEDTAVYYCAREDYDSSGYYWFDPWGQGTPVTVSS
VL: DIQLTQSPSSVSASVGDRVTITCRASQGISSWLAWYQQKPGKAPKLLIYAASSLQSGVPSRFSGSGSGTDFTLTINSLQPEDFATYYCQQTNSFPLTFGGGTKVEIK
B1 displayed a Percentage of Positive Cells in assay [1] of 49.3%.

B2: anti-SIGLEC15 antibody 10C9 (antibody, human IgG1, V domains shown)
VH: QVQLVQSGAEVKKPGATVKVSCKASGYTFTNYGFSWVRQAPGQGLEWMGWINTYNDNTNYAQKFQGRVTMTTDTSTSTAYMELRSLRSDDTAVYYCARDGLWFGELPHYFDYWGQGTLVTVSS
VL: DIQLTQSPLSSPVTLGQPASISCRSSQSLVNSDGETFLSWLQQRPGQPPRLLIYKISNRFSGVPDRFSGSGAGTDFTLKISRVEAEDVGVYYCMQATQFPHTFGQGTKLEIK
In assay [1], B2 came in with a Percentage of Positive Cells of 47.5%. In assay [2], this molecule came in with a Kd of 0.0206 nM, a koff of 5.01e-05 s⁻¹ and a kon of 2.43e+06 M⁻¹ s⁻¹.
